The nature of series [1]: Assay 8: stability of linker-drug compounds. It counts as physicochemical. The note with it: high temperature, high humidity, illumination or 0.5% BSA-PBS; compared with Deruxtecan. The protocol:
Different linker-drug compounds such as Deruxtecan and JSSW-001 were studied under high temperature (40°C, 60°C), high humidity (25°C/75% RH and 25°C/92.5% RH), illumination (illuminance 4500Lux, near-UV energy 90µw/cm^2), or 0.5% BSA-PBS conditions. Samples were collected at different times after exposure to these conditions, and the concentration changes of the linker-drug compounds in the samples were detected using the LC-MS/MS method.

Series [2] relates to human colorectal cancer DiFi xenograft tumor. The experiment in a line: Assay 16: DiFi xenograft efficacy of patritumab-ADC. The note with it: 10 mg/kg i.v./qw*3w (as in Table 29). The class given is in vivo, NU/NU mice. From the text: (§1) NU/NU mice, 5-6 weeks old, 18 mice
(§2) The assay was terminated on day 28 after the administration.

For series [3], the system named is human lung cancer PC9-GR (gefitinib-resistant cell) xenograft tumor. The experiment in a line: Assay 3: PC9-GR xenograft efficacy of patritumab-ADC. It counts as in vivo, NU/NU mice. The note with it: 3 mg/kg i.v./qw*4w.
Source text: NU/NU mice, 5-6 weeks old, 16 mice
as §2

Series [4] deals with human colon cancer SW620 xenograft tumor. As to the kind of experiment: Assay 15: SW620 xenograft efficacy. It counts as in vivo, NU/NU mice. The note with it: 7 mg/kg i.v./single administration.
Source text: as §1
The assay was terminated on day 26 after the administration.

For series [5], the target named is T1, EGFR on MDA-MB-468 cells (human, UniProt P00533 25-1210).
T1 construct: whole, on cells; also called target antigen; HER1
The experiment in a line: flow cytometry (FACS) on MDA-MB-468 cells, pH 6.0; end of the range tied to SWY2111 by Table 1.

Series [6] deals with T1, EGFR on MDA-MB-468 cells. As to the kind of experiment: flow cytometry (FACS) on MDA-MB-468 cells, antibody diluted in PBS pH 7.4, FITC anti-human Fc secondary. On the technique in general: In flow cytometry, cells or beads pass a laser one at a time.
The target of series [7] is T1, EGFR on MDA-MB-468 cells. The experiment in a line: flow cytometry (FACS) on MDA-MB-468 cells, antibody diluted in PBS pH 6.0, FITC anti-human Fc secondary.
Series [8] deals with T1, EGFR on MDA-MB-468 cells. As to the kind of experiment: flow cytometry (FACS) on MDA-MB-468 cells, pH 7.4; end of the range tied to SWY2111 by Table 1.
In series [9] the target is T1, EGFR on MDA-MB-468 cells. As to the kind of experiment: flow cytometry (FACS) on MDA-MB-468 cells, pH 6.0.
The target of series [10] is T1, EGFR on MDA-MB-468 cells. The experiment in a line: flow cytometry (FACS) on MDA-MB-468 cells, pH 7.4; end of the range tied to SWY2113 by Table 1.
Series [11] concerns the target T1, EGFR on MDA-MB-468 cells. As to the kind of experiment: flow cytometry (FACS) on MDA-MB-468 cells, pH 6.0; end of the range tied to SWY2112 by Table 1.

Positions count from the first letter of the chain named. Marks after values point to notes of the source that are not given here. Starred links: 1 amine or outer side, 2 acyl side, 3 side chain; linkers in the order of their positions; H or OH if unused. Non-standard residues stand in square brackets, D forms with d. Residues, ends and D or L forms follow the SMILES beside them. *: point of attachment. Exatecan = CC[C@@]1(O)C(=O)OCc2c1cc1n(c2=O)Cc2c-1nc1cc(F)c(C)c3c1c2[C@@H](N*)CC3; Hexanoyl(6-maleimido) = O=C1C=CC(=O)N1CCCCCC(=O)*; X1 = C[C@@H](OCN[*:1])C(=O)[*:2]

Regarding `CC[C@@]1(O)C(=O)OCc2c1cc1n(c2=O)Cc2c-1nc1cc(F)c(C)c3c1c2[C@@H](NC(=O)[C@@H](C)OCNC(=O)CNC(=O)[C@H](Cc1ccccc1)NC(=O)CNC(=O)CNC(=O)CCCCCN1C(=O)C=CC1=O)CC3` [JSSW-001, N-((2R,10S)-10-benzyl-1-(((1S,9S)-9-ethyl-5-fluoro-9-hydroxy-4-methyl-10,13-dioxo-2,3,9,10,13,15-hexahydro-1H,12H-benzo[de]pyrano[3',4':6,7]indolizino[1,2-b]quinolin-1-yl)amino)-2-methyl-1,6,9,12,15-pentaoxo-3-oxa-5,8,11,14-tetraazahexadecan-16-yl)-6-(2,5-dioxo-2,5-dihydro-1H-pyrrol-1-yl)hexanamide] ({Hexanoyl(6-maleimido)}-GGFG[X1]-Exatecan), in series [1], the “stability of linker-drug compound” value is given as “better stability”.
As for “patritumab-DXD ADC (DAR=7.3): patritumab conjugated with commercially available Deruxtecan [reference compound]”, the “TGI (%) Day 28” value in series [2] was 54.0%; in [3], 59.5%. Besides, the results for the “Tumor Volume” value in series [2] (28 days), in series [3] (28 days) and in [4] (21 days) were 512.5 ± 470.8* mm^3, 373.4 ± 102.8** mm^3 and 461.3±278.1*** mm^3, respectively. Further, the “TGI (%) Day 21” value in [4] worked out at 73.2%.

B1: SWY2111 (antibody, human IgG1, kappa, V domains shown)
VH: QVQLQESGPGLVKPSETLSLTCTVSGFSLSDYDVHWVRQAPGKGLEWLGVIWSGGNTDYNTPFTSRLTISVDTSKNQFSLKLSSVTAADTAVYYCARALDDYDYEFAYWGQGTLVTVSS
VL: EIVLTQSPDFQSVTPKEKVTITCRASQSIGTNIHWYQQKPDQSPKLLIKYASESISGIPSRFSGSGSGTDFTLTINSLEAEDAATYYCQQNNEWPTSFGQGTKLEIKR
notes: also called EGFR antibody SWY2111
B1: the “fold change of affinity compared to SWY2110 at pH=6.0” value with EGFR on MDA-MB-468 cells [5] fell in the range of 1.2 to 1.3 times. The EC50 (commonly the concentration needed to bring the measured effect to its halfway point) with EGFR on MDA-MB-468 cells [6] was 1.45 nM; with EGFR on MDA-MB-468 cells [7] it was 0.6 nM. For the same molecule, the “fold decrease of affinity compared to SWY2110 at pH=7.4” value in the series with EGFR on MDA-MB-468 cells [8] is 3 times.

B2: SWY2113 (antibody, human IgG1, kappa, V domains shown)
VH: B1 VH with D31H
VL: B1 VL
notes: also called EGFR antibody SWY2113
With B2, the “fold decrease of affinity compared to SWY2110 at pH=6.0” value with EGFR on MDA-MB-468 cells [9] came to 6.6 times. Further, the values for the concentration giving a half-maximal response (EC50) in the series with EGFR on MDA-MB-468 cells [6] and in the series with EGFR on MDA-MB-468 cells [7] were 4.76 nM and 3.39 nM, respectively. Further, the “fold decrease of affinity compared to SWY2110 at pH=7.4” value with EGFR on MDA-MB-468 cells [10] was 3 to 9.7 times.

B3: SWY2112 (antibody, human IgG1, kappa, V domains shown)
VH: B1 VH with D31E
VL: B1 VL
notes: also called EGFR antibody SWY2112
As for B3, the EC50 is 2.35 nM with EGFR on MDA-MB-468 cells [6] and 0.67 nM with EGFR on MDA-MB-468 cells [7]. The “fold change of affinity compared to SWY2110 at pH=6.0” value in the series with EGFR on MDA-MB-468 cells [11] fell in the range of 1.2 to 1.3 times.

The record behind these values is patent EP4714469A1, “PHARMACEUTICAL COMPOSITION COMPRISING ANTIBODY-DRUG CONJUGATE” (CSPC Megalith Biopharmaceutical Co., Ltd., priority 2023, dated 2024).
